Results reported in patent US20160289747, “DETECTION OF NUCLEIC ACIDS BY STRAND INVASION BASED AMPLIFICATION” (ORION DIAGNOSTICA OY, published 2016).

T1: gp32 single-stranded DNA binding protein (Enterobacteria phage T4, UniProt P03695 P03695:1-301)
T1 sequence: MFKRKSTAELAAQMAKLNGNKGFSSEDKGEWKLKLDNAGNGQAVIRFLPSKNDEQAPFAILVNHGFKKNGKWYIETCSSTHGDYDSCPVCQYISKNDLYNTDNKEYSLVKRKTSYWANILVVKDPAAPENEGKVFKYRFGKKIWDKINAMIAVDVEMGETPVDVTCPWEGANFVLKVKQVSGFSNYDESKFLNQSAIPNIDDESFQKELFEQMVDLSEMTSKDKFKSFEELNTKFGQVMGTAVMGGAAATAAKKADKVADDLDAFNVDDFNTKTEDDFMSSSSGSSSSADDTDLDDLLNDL


Assays:
UvsX recombinase [1] = target: T2, UvsX recombinase (Enterobacteria phage T4, UniProt P04529 P04529:1-391); test: probe remained quenched; Mg, ATP, 40 C; conditions: label: fluorophore and quencher
T2 sequence (P04529 whole entry, one chain of several): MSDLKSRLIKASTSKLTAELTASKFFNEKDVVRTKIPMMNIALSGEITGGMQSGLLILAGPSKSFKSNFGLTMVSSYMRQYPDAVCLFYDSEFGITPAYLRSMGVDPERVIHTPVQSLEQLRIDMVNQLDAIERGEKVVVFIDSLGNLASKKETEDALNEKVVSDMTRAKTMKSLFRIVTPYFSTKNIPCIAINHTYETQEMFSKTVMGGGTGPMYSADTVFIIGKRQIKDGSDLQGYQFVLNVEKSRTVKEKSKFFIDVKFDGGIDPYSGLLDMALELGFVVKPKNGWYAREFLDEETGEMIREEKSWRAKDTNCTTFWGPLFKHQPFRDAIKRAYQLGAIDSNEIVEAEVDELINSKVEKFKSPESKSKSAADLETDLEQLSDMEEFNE
Method: (§1) The oligonucleotide probes were incubated in the presence or absence of 200 nM complementary template (SEQ ID NO: 34 for probes with SEQ ID NO 1-8, or SEQ ID NO: 44 for probes with SEQ ID NO 9 or 10) and 5 μM UvsX in buffer containing 20 mM Tris-acetate pH 8.0, 10 mM Magnesium acetate, 2 mM ATP, 60 mM Tris-Phosphocreatine and 0.025 U/μl Creatine Kinase. Fluorescence was measured after 20 minutes incubation at 40 degrees centigrade.

[2] = target: T1, gp32 single-stranded DNA binding protein; test: little or no fluorescence increase; conditions: tags: New England Biolabs; label: fluorophore and quencher
Method: (§2) The effect of the single-strand binding protein, bacteriophage T4 gp32 (New England Biolabs), on signal from the same oligonucleotide probes used with UvsX was also elucidated. Similar concentrations of oligonucleotide probes to those used with UvsX were incubated in the presence or absence of 0.25 mg/ml of gp32 and 200 nM complementary template ((SEQ ID NO: 34 for probes with SEQ ID NO 1-8 or SEQ ID NO: 44 for probes with SEQ ID NO: 9 or 10) in a buffer containing 20 mM Tris-acetate pH 7.9, 50 mM potassium acetate, 10 mM Magnesium Acetate and 1 mM DTT.

RecA [3] = target: T3, RecA (Escherichia coli, UniProt P0A7G6 P0A7G6:2-353); test: no significant fluorescence increase; Mg, ATP; conditions: tags: New England Biolabs; label: fluorophore and quencher
T3 sequence (P0A7G6 2-353, one chain of several): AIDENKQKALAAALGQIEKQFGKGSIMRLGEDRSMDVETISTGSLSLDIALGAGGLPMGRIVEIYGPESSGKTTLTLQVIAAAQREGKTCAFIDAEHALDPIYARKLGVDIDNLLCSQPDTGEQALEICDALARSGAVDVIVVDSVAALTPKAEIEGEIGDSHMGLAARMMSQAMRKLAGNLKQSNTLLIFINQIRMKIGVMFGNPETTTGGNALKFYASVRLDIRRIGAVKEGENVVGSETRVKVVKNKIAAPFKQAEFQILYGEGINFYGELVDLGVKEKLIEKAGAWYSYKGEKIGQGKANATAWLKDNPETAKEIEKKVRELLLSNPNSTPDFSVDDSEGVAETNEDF
Method: (§3) The effect of Escherichia coli recombinase, RecA (New England Biolabs) on signal from oligonucleotide probes was also elucidated (FIG. 1d). Similar concentrations of oligonucleotide probes to those used in FIGS. 1a and 1b were incubated in the presence or absence of 100 μg/ml of RecA in a buffer containing 70 mM Tris-HCl pH 7.6.10 mM MgCl₂, 5 mM DTT and 10 mM ATP. […] However, the increase was not as high as that seen with T4 UvsX.

[4] = target: T1, gp32 single-stranded DNA binding protein; test: fluorescence dequenching; 0.25 mg/ml gp32, Mg, K acetate; conditions: tags: New England Biolabs; label: fluorophore and quencher
Method: as §2

UvsX recombinase [5] = target: T2, UvsX recombinase; test: fluorescence dequenching; 5 uM UvsX, Mg, ATP, 40 C; conditions: label: fluorophore and quencher
Method: as §1

RecA [6] = target: T3, RecA; test: fluorescence increase, less than UvsX; Mg, ATP; conditions: tags: New England Biolabs; label: fluorophore and quencher
Method: as §3

Binder | binding result (UvsX recombinase [1]) | binding result [2] | binding result (RecA [3]) | binding result [4] | binding result (UvsX recombinase [5]) | binding result (RecA [6])
ACGAAAGCCGAUGACUAAUGC (ssRNA, 2'-OMe) [2'-O-methyl RNA 21] | no binding | no binding | no binding |  |  | 
ACGAAAGCCGAUGACUAAUGC (ssRNA) [RNA 21] | no binding | no binding | no binding |  |  | 
AGCCGATGACTAATGC (ssDNA) [DNA 16] |  |  |  | binds | binds | 
AGCCGAUGACUAAUGC (ssRNA, 2'-OMe) [2'-O-methyl RNA 16] | no binding | no binding |  |  |  | 
AGUUGAUGUGUA (XNA, LNA) [LNA 12] | no binding | no binding | no binding |  |  | 
AGCCGAUGACUAAUGC (ssRNA, 2'-F) [2'-fluoro RNA 16] | no binding | no binding |  |  |  | 
AGCCGAUGACUAAUGC (ssRNA) [RNA 16] | no binding | no binding |  |  |  | 
ACGAAAGCCGAUGACUAAUGC (ssRNA, 2'-F) [2'-fluoro RNA 21] | no binding | no binding | no binding |  |  | 
ACGAAAGCCGATGACTAATGC (ssDNA) [DNA 21] |  |  |  | binds | binds | binds
